Experimental findings from PMC7244744, “Vesicular transport mediates the uptake of cytoplasmic proteins into mitochondria in Drosophila melanogaster” (Nature Communications, 2020) are described below.

This data set concerns the molecule itself. Nature of the data set: SDS-PAGE and western blot with and without DTT; flight-muscle tissue homogenates of wild-type flies, mitochondrial fraction; monomer band and upper band (Dosmit*); analysed in the presence and absence of DTT.

B1: Dosmit (downsizing mitochondria), endogenous in fly flight muscle (natural protein, UniProt Q9VAM6 1-133, looked up)
chain: MEPISHLVKSSLPNYLSSLPVPDSIGGWFKLSFKDWLALIPPTVVVAGLGYTAYLAYCPAARASCAAKNSGRCNNHIRKNEPKVVDMIDVEDIAEKAAFCRCWKTKNWPYCDGSHGEHNKQTGDNVGPIVIKK
notes: endogenous protein of flight muscle; Seen as monomer and dimer (Dosmit*) bands on western blots; the dimer band is reduced to the monomer by DTT; also called Dosmit* (dimer form); CG1458; source: endogenous, flight-muscle tissue homogenate of wild-type flies (mitochondrial fraction)
For the protein B1, the “stoichiometry N” value was found to be 2.
